In patent US20100196361A1, “Method of inhibition of vascular development using an antibody” (DYAX CORP., priority 2003, published 2010):
Changes are numbered by the printed parent chain.

T1: human Tie1-Fc fusion protein (Homo sapiens, UniProt P35590)
T1 construct: selected against the Tie1 extracellular domain fused to human Fc or to a histidine purification tag
T1 sequence (P35590 22-759 limits assumed): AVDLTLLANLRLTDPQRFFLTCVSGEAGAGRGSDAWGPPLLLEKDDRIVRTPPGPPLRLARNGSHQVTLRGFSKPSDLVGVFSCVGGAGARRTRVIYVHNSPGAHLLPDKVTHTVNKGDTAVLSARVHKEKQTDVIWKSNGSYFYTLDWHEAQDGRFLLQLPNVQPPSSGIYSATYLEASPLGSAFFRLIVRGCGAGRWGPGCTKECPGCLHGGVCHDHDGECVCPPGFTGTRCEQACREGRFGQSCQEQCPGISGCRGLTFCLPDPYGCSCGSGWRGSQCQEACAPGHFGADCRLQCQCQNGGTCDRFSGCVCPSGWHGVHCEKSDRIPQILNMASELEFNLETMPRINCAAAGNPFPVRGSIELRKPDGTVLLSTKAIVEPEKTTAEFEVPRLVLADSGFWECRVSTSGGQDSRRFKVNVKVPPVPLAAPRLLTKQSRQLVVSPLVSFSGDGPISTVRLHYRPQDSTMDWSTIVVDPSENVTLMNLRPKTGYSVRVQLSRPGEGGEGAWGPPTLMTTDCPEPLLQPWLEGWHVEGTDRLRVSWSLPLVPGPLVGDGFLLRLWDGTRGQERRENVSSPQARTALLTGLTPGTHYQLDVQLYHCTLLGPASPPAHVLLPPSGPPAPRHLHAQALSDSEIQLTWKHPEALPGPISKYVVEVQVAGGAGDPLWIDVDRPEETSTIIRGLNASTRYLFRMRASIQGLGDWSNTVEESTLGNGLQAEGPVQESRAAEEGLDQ

B1: E3: human anti-Tie1 antibody from phage Fab library, reformatted as IgG; HC variable SEQ ID NO:114, LC variable SEQ ID NO:116 (antibody, V domains shown)
VH: EVQLLESGGGLVQPGGSLRLSCAASGFTFSMYGMVWVRQAPGKGLEWVSVISPSGGNTGYADSVKGRFTISRDNSKNTLYLQVNSLRAEDTAVYYCARAPRGYSYGYYYWGQGTLVTVSSASTKGPSVFPLAPSSKSTSGG
VL: DIQMTQSPLSLSASVGDRVTITCRASQGIGHYLAWYQQKPGKVPKLLIYTASTLQSGVPSRFSGSGSGTDFTLTINSLQPEDVATYYCQQFNSYPHTFGQGTRLDIK
modifications: IgG constant regions; Synthetically generated peptide
B2: parental E3 Fab: soluble Fab fragment of the parental E3 anti-Tie1 antibody (antibody, V domains shown)
VH: B1 VH
VL: B1 VL
B3: DX-2210: E3 antibody in which the light chain has been germlined (antibody, V domains shown)
VH: B1 VH
VL: B1 VL with L9S, N76S, D105E

What was measured:
mouse Tie1 = molecular target: T2, mouse Tie1 (Mus musculus, UniProt Q06806); test: Flow cytometry on mouse endothelial cell lines; format: binding; conditions: MS1, Le-2, Bend3, SVEC, biotinylated antibody
T2 construct: host or cells: MS1, Le-2, Bend3, SVEC
Description: We evaluated if E3 cross reacts with mouse Tie1 in situ and thus if we can evaluate E3 activity in mouse tumor xenograft models binding to mouse endothelial cells was tested and compared with human and transfected cell lines.
Specific binding of the Tie1 antibodies and of control Mabs to mouse endothelial cells was measured by flow cytometry analysis (FACSscan, Becton Dickinson, Oxnard, Epics, Coulter). Mouse endothelial cell lines MS1, Le-2, Bend3, SVEC (ATCC, Rockville) and Tie1 transfected Le-2 cells were stained. Cell staining was modified from existing protocols. About 200,000 cells were used in each experiment: after trypsinization, cells were washed one time in PBS and resuspended PBS, 10% heat inactivated human serum (incubation buffer). […] After the final incubation step bound antibodies were detected by means of flow cytometry on a FACSCan and Epics Altra (Becton Dickinson, Oxnard, Coulter) and results analyzed.
Intracellular Tie1 was measured as described above, except for the addition of Saponin to the incubation buffer to a final concentration of 0.1% during incubations. […] The binding pattern in mouse cell lines detected by flow cytometry is different from the binding pattern in HUVEC in that in mouse cells there is a greater cell surface staining than that compared to primary human endothelial cell lines. […]

[1] = molecular target: T1, human Tie1-Fc fusion protein; test: BIAcore 3000 affinity analysis of Fab and IgG; format: binding
Description: Affinity analysis of the Fab and IgGs was performed using surface plasmon resonance using a BIAcore 3000 instrument. For this analysis both dimeric (Tie1-Fc fusion protein) and monomeric (Tie1-HIS) versions of the extracellular domain of the Tie1 were used. The sensor chips used in these experiments were CM5 (dextran-coated) which allow immobilization of proteins to the chip via standard amine coupling chemistries. The concentration of flowed antibody was determined using a surface plasmon resonance based method. Using a high-density protein A sensor chip, under mass transport limited conditions, the response signal is dependent only on the concentration of the antibody in the sample under test. This approach allows a precise determination of the antibody concentration, a parameter important for accurate determination of the KD.
470 RUs of Tie1 HIS protein were coated on a CM5 sensor chip and 5, 20, 100, and 500 nM of the Fab flowed over the chip at four different flow rates ([…]), rates in which the system is not mass transport limited. Kinetic data was typically determined using a range of analyte concentrations and three different chip coating densities. The data from the lowest coating density that gave a good signal was typically chosen, this was often in a range from 50-100 RUs. Using such low coating densities allowed the sensor curves to be fit using BIAEVALUATION™ 3.0 software to a 1:1 model, often even when using a bivalent analyte (IgG or Tie1-Fc fusion protein). For bivalent analytes, when fit to a 1:1 model was not possible, the curves were fit using a 2:1 model.
The anti-Tie1 antibodies described here bind to both human and mouse Tie1 molecules. The binding of the anti-Tie1 Fab to mouse Tie1-Fc fusion protein was compared with the binding of the anti-Tie1 Fab to human Tie1-Fc fusion protein. In both of these experiments the Tie1-Fc fusion protein was immobilized on the sensor chip and the anti Tie-1 Fab served as the analyte. Under these experimental conditions the anti-Tie1 Fab has very similar KD (˜3 nM) values for both the human and mouse Tie1-Fc fusion proteins (Table 9). Under conditions that are likely to mimic those used in the animal efficacy experiments, i.e. Tie1-Fc immobilized to the CM5 sensor chip and anti-Tie1 used as the analyte, the measured KD was 0.2 nM.

T2 sequence (Q06806 23-1134): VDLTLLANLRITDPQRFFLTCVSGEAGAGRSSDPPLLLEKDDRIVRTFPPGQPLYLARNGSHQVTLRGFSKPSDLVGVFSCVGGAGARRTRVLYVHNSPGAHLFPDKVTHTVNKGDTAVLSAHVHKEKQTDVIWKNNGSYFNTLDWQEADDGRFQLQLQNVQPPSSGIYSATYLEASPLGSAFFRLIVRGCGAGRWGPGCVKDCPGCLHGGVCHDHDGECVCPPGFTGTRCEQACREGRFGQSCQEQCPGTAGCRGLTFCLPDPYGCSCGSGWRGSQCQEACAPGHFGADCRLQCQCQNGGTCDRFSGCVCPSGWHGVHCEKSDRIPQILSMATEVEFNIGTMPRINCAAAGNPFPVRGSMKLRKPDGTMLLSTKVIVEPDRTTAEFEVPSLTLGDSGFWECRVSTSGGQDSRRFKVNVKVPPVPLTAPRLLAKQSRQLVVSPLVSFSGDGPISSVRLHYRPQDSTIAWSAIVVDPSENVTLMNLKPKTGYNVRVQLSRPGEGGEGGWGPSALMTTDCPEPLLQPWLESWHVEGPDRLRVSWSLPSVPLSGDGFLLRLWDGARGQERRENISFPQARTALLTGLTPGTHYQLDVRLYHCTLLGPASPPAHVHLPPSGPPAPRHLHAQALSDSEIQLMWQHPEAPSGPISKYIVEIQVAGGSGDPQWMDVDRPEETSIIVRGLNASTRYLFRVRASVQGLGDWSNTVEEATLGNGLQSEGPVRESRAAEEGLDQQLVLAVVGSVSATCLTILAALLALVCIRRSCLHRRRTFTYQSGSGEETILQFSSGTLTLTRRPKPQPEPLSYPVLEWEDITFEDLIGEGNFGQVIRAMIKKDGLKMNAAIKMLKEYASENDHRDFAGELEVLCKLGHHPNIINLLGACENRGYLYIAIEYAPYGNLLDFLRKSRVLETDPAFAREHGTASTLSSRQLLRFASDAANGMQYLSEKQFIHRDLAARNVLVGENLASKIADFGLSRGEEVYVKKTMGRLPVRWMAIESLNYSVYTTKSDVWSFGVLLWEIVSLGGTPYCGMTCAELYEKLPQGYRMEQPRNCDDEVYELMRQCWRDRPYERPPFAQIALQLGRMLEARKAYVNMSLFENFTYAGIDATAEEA

Molecule | binding to mouse endothelial cell lines (mouse Tie1) | Kon [1] [M⁻¹ s⁻¹] | koff [1] [s⁻¹]
B1 | binds to mouse endothelial cell lines | 6190 | 3.61e-05
B2 | – | 8260 | 4.47e-05
B3 | stained positively | – | –
